Substrate in the series: C[N+](C)(C)C[C@H](O)CC(=O)[O-]
As to the kind of experiment: Tracer flux transport measurement in Xenopus laevis oocytes injected with cRNA comprising SEQ ID NO: 4. Type of series: cell-based, human. The conditions noted are these: other: concentration dependency of L-carnitine transport, Michaelis-Menten, uptake measured for 1 hour, FIG. 2. How it is done:
The transport measurements of radioactively labeled compounds were executed using Xenopus laevis oocytes in the so-called “tracer flux method”, wherein the transport rate of substrates across the oocyte membrane into the cytosol is determined.
A Xenopus laevis oocyte was injected with a cRNA molecule comprising SEQ ID NO: 4.
Injected oocytes were kept in the culture medium ORi comprising gentamycin (50 mg/L) at 18° C. until the measurement of substrate uptake. Injured, acutely altered or later heavily damaged cells were discarded.
After 72 hours the oocyte was used for screening for a carnitine transporter agonist or antagonist. […]
The oocytes were washed four times in 15 ml ice cold ORi. […] The radioactivity of the lysates was determined in a liquid scintillation counter comprising a correction for the luminescence and an external standard. Each vial was counted for 5 minutes. […]
For the determination of concentration-dependent substrate uptake serial dilutions of the investigated substrate were prepared and the radioactivity was distributed, such that in each reaction mixture between 10000 and 20000 cpm were counted in the supernatant. For the KM determination the substrate uptake was measured for 1 hour. […] The transport rates were calculated and graphically plotted against the substrate concentration and adapted mathematically according to the Michaelis-Menten equation.

B1: carnitine transporter comprising the amino acid sequence SEQ ID NO: 1 (Homo sapiens) (protein)
chain: MVRLVLPNPGLDARIPSLAELETIEQEEASSRPKWDNKAQYMLTCLGFCVGLGNVWRFPYLCQSHGGGAFMIPFLILLVLEGIPLLYLEFAIGQRLRRGSLGVWSSIHPALKGLGLASMLTSFMVGLYYNTIISWIMWYLFNSFQEPLPWSDCPLNENQTGYVDECARSSPVDYFWYRETLNISTSISDSGSIQWWMLLCLACAWSVLYMCTIRGIETTGKAVYITSTLPYVVLTIFLIRGLTLKGATNGIVFLFTPNVTELAQPDTWLDAGAQVFFSFSLAFGGLISFSSYNSVHNNCEKDSVIVSIINGFTSVYVAIVVYSVIGFRATQRYDDCFSTNILTLINGFDLPEGNVTQENFVDMQQRCNASDPAAYAQLVFQTCDINAFLSEAVEGTGLAFIVFTEAITKMPLSPLWSVLFFIMLFCLGLSSMFGNMEGVVVPLQDLRVIPPKWPKEVLTGLICLGTFLIGFIFTLNSGQYWLSLLDSYAGSIPLLIIAFCEMFSVVYVYGVDRFNKDIEFMIGHKPNIFWQVTWRVVSPLLMLIIFLFFFVVEVSQELTYSIWDPGYEEFPKSQKISYPNWVYVVVVIVAGVPSLTIPGYAIYKLIRNHCQKPGDHQGLVSTLSTASMNGDLKY
notes: expressed in transfected cells; host or cells: Xenopus laevis oocytes injected with cRNA
One may read the Km as the substrate concentration at which the rate is half of its maximum. As to B1, the Km worked out at 15 µM.

The values are drawn from patent US7879563B2, “Method of screening for a carnitine transporter agonist or antagonist and its uses” (Sanofi-Aventis Deutschland GmbH, priority 2004, dated 2011).
